{"source": "patent WO2017153426A1", "about": "(dated 2017)", "binders": {"B1": {"name": "DOM30h-440-81/86 (other)", "chain": "DIQMTQSPSSLSASVGDRVTITCRASRPIRNWLDWYQQKPGKAPKLLIWGASHLQSGVPSRFSGSGSGTDFTLTISSLQPEDFATYYCVQIGEDPVTFGQGTKVEIK"}}, "biological_target": "native TSLP (supernatant from stimulated human lung fibroblasts) (human, UniProt Q969D9 29-159, limits assumed)", "assay": "cell-based or functional assay", "data": [{"binder": "B1", "values": [{"measurement": "Geometric Mean IC50, inhibition of TSLP-induced pSTAT5 in SW756 cells", "value": 0.86, "unit": "nM"}]}]}
